These results are taken from PMC11651300 (Journal of the American Society for Mass Spectrometry, 2024).

Data set [1] addresses Pyruvate kinase from rabbit (rabbit) (UniProt P11974). Put plainly: native MS.
The data set “native MS” deals with the molecule itself. Put plainly: native MS.

Molecule “Pyruvate kinase from rabbit (from UniProt P11974 1-531) (enzyme)” returned a stoichiometry N in data set [1] of 4.

B1: Cholera toxin B (natural protein)
chain: TPQNITDLCAEYHNTQIYTLNDKIFSYTESLAGKREMAIITFKNGAIFQVEVPGSQHIDSQKKAIERMKDTLRIAYLTEAKVEKLCVWNNKTPHAIAAISMAN
Turning to B1, the “stoichiometry N” value in the data set “native MS” stood at 5.

In general, stoichiometry N refers to the number of molecules, sites or subunits per partner or assembly.
